Reference: patent publication US20120009180A1 (Kyowa Kirin, published 2012)
Numbering of substitutions follows the chain as printed.

B1: anti-Aβ oligomer humanized antibody HV0LV0 (antibody, V domains shown)
VH: DVQLVESGGGVVQPGRSLRLSCAASGFTFSSFGMHWVRQAPGKGLQWMVYISSGSSTIYYADTVKGRFTISRDNSRSTLFLQMNSLRGEDTAVYYCARTGTRAYWGQGTLVTVSS
VL: DIVMTQSPLSLPVTPGEPASISCRSSQSIVHSNGNTYLEWYLQKPGQSPQLLIYKVSNRFSGVPDRFSGSGSGTDFTLKISRVEAEDVGVYYCFQGSHVPPTFGQGTKLEIK
notes: purified on Prosep vA; also called HV0LVV0; 4H5HV0 + 4H5LV0
B2: anti-Aβ oligomer humanized antibody HV5aLV0 (antibody, V domains shown)
VH: B1 VH with Q46E, M48V, V49A, V93M, R98G
VL: B1 VL
notes: also called HV5aVL0
B3: anti-Aβ oligomer humanized antibody HV5aLV1b (antibody, V domains shown)
VH: B1 VH with Q46E, M48V, V49A, V93M, R98G
VL: B1 VL with P15L
B4: anti-Aβ oligomer humanized antibody HV6LV3 (antibody, V domains shown)
VH: B1 VH with Q46E, M48V, V49A, S77N, V93M, R98G
VL: B1 VL with I2V, P15L, Q50K

The binders below were run against T1, Aβ oligomers prepared from Amyloid β-protein, Human 1-42 peptide (human, UniProt P05067 672-713) (assay: SPR (Biacore T100), Aβ oligomers amine-coupled to CM5 chip, antibody injected, Bivalent Analyte model (ka1)).
T1 construct: domain: Amyloid β-protein 1-42; Oligomeric preparation (HFIP, DMSO, acetic acid solution pH 4.5, overnight at 4 °C); Amine-coupled to a CM5 chip; also called amyloid β oligomer
T1 sequence (P05067 672-713 limits assumed): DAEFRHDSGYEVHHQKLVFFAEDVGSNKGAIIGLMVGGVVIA
Procedure: (§1) All the following operations were performed using Biocore T100 (manufactured by GE Healthcare Bio-sciences). The Aβ oligomers obtained in (1) of Example 2 were immobilized to the CM5 sensor chip (GE Healthcare Bio-sciences) using the amine coupling method.
(§2) Onto the chip to which the Aβ oligomers were immobilized for measurement samples prepared to have 8 levels of density by diluting from 30 μg/mL by doubling dilution in a stepwise manner (HV0LV0, HV5aLV0, HV5aLV1b, HV5aLV3, HV6LV0, HV6LV1b, and HV6LV3) was sequentially injected and measured in the order from the lower density based on the automatic program of the multi-kinetics.
(§3) Using the analysis software attached to the device, Biacore T100 Evaluation software (manufactured by Biacore Life Science), analysis was carried out with the Bivalent Analyte model to calculate the binding rate constant ka and the dissociation rate constant kd of each of the antibody against Aβ oligomers.
B1 gave a kon of 14000 M⁻¹ s⁻¹. In the case of B2, the kon is reported as 11000 M⁻¹ s⁻¹. In the case of B3, the kon is reported as 9800 M⁻¹ s⁻¹. With B4 the kon was 8200 M⁻¹ s⁻¹.

What follows are binders tested against T1, Aβ oligomers prepared from Amyloid … (assay: SPR (Biacore T100), Aβ oligomers amine-coupled to CM5 chip, antibody injected, Bivalent Analyte model (kd1)).
Procedure: as §1, §2, §3
With B1 the koff was 0.0014 s⁻¹. Work on B2 yielded a koff of 0.00063 s⁻¹. B3 showed a koff of 0.00088 s⁻¹. Binder B4 has a koff of 0.00092 s⁻¹.

These binders were tested against T2, Aβ monomers prepared from Biotin-beta-Amyloid, Human 1-40 (human, UniProt P05067 672-711, biotin (Biotin-beta-Amyloid; position of the biotin not stated)) (assay: SPR (Biacore T100), biotin-Aβ1-40 monomers captured on SA chip, antibody injected).
T2 construct: domain: beta-Amyloid 1-40; captured through biotin on an SA sensor chip; also called amyloid β protein monomer
T2 sequence (P05067 672-711 limits assumed): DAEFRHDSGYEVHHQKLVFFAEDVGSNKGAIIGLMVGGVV
Procedure: In order to analyze the binding activity of the respective anti-Aβ oligomer humanized antibodies (HV0LV0, HV5aLV0, HV5aLV1b, HV5aLV3, HV6LV0, HV6LV1b, and HV6LV3) against Aβ monomers, the binding activity was measured in the same manner as in (1) of this Example. In addition, the binding activity of anti-Aβ antibody 6E10 (manufactured by CONVANCE) was measured as a control antibody.
The Aβ monomers obtained in (2) of Example (2) were immobilized to the SA sensor chip (manufactured by GE Healthcare Bio-sciences) by the biotin capturing method. Onto the chip to which the Aβ monomers were immobilized, samples for measurement, which were prepared to have 5 levels of density by diluting from 30 μg/mL by doubling dilution in a stepwise manner (HV0LV0, HV5aLV0, HV5aLV1b, HV5aLV3, HV6LV0, HV6LV1b, and HV6LV3) were sequentially injected and measured in the order from the lower density based on the automatic program of the multi-kinetics mode.
B1: no binding. B2: no binding. B3: no binding. B4: no binding.

These binders were tested against T1, Aβ oligomers prepared from Amyloid … (assay: SPR (Biacore T100), Aβ oligomers amine-coupled to CM5 chip, antibody injected, Bivalent Analyte model (kd1/ka1)).
Procedure: as §1, §2, §3
B1 gave a Kd of 100 nM. For B2, the Kd was 55 nM. Binder B3 has a Kd of 90 nM. B4 was tested, and the Kd was 110 nM.
